We go through seven molecules from US20240376168A1 (LETO LABORATORIES, published 2024).

The target of test [1] is β-Klotho overexpressed on HEK293 cells. Nature of the test: cell-based or functional assay.
The target in test [2] is T1, extracellular domain of human receptor β-Klotho with a C-terminal Poly-His tag (human, UniProt Q86Z14 1-996).
T1 construct: extracellular domain; Immobilised on an NTA chip at 1,000 RU; also called human β-Klotho protein; KLB; not shown: Poly-His tag at the C-terminus
T1 sequence (looked up): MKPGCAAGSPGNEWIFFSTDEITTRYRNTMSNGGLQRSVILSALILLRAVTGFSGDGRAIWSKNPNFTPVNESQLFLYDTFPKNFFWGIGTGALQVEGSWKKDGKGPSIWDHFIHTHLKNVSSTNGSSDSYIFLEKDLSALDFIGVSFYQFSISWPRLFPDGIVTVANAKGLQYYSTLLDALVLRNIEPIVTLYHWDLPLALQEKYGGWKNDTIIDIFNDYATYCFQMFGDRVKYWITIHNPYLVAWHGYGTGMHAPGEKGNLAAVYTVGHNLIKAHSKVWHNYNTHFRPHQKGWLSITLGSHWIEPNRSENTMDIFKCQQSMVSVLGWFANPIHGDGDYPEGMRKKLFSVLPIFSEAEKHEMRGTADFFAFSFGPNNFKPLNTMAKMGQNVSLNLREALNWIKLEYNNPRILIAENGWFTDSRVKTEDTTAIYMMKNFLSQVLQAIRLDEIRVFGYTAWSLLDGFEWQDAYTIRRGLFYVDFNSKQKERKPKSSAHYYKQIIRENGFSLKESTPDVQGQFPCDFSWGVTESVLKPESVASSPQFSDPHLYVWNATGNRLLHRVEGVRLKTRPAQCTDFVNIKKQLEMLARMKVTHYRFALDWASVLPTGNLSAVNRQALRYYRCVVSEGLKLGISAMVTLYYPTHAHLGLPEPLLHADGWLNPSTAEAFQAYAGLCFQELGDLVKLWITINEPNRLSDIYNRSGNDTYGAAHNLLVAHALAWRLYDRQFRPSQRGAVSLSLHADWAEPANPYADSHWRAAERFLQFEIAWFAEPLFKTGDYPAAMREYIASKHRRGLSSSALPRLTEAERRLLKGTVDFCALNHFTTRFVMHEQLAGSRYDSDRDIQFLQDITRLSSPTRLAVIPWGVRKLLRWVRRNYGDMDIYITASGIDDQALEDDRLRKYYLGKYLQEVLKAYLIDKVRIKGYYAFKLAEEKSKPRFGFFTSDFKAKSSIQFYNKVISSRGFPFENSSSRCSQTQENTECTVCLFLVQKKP
Nature of the test: SPR, Biacore-8K; His-tagged β-Klotho ECD on NTA chip, FGF21 mutant as analyte, kinetic fit. The protocol:
An extracellular domain of a human receptor β-Klotho (a Poly-His tag was fused at a C-terminus) was expressed and purified in the present disclosure, and a sequence of the protein was acquired from the Uniprot database. An affinity assay was conducted with Biacore-8K. Specifically, a human β-Klotho protein was immobilized on an NTA chip at a fixed amount of 1,000 RU with PBS (including 0.05% Tween-20) as a flow buffer. An FGF21 mutant was allowed to flow through the chip at different concentrations to determine the binding of the FGF21 mutant to β-Klotho. Final data were fitted using kinetics, and a dissociation constant KD was calculated.

B1: FGF21 (Del-P171) mutant 1408 (ligand)
chain: HPIPDSSPLLQFGGQVRQRYLYTDDAQQTEAHLEIREDGTVGGAADQSPESLLQLKALKPGVIQILGVKTSRFLCQRPDGALYGSLHFDPEACSFRELLLEDGYNVYQSEAHGLPLHLPGQKSPHRDPAPRGPARFLPLPGLPPALPEPPGILAPQPPDVGSSDPLSLVGSQGRSPSYAS
In the case of B1, in test [1], the “Activity in β-Klotho-ERK cells (EC50)” value is 1.48 nM. The molecule further came in with a Kd in test [2] of 67.5 nM.

B2: FGF21 (170C/Ins-172G/173C) mutant 1409 (ligand)
chain: HPIPDSSPLLQFGGQVRQRYLYTDDAQQTEAHLEIREDGTVGGAADQSPESLLQLKALKPGVIQILGVKTSRFLCQRPDGALYGSLHFDPEACSFRELLLEDGYNVYQSEAHGLPLHLPGQKSPHRDPAPRGPARFLPLPGLPPALPEPPGILAPQPPDVGSSDPLSLVCPGCQGRSPSYAS
modifications: intramolecular disulfide bond between C170 and C173
Regarding B2, the “Activity in β-Klotho-ERK cells (EC50)” value in test [1] worked out at 2.14 nM. In test [2], this molecule returned a Kd of 59.4 nM.

B3: FGF21 (170C/Ins-172A/173C) mutant 1412 (ligand)
chain: HPIPDSSPLLQFGGQVRQRYLYTDDAQQTEAHLEIREDGTVGGAADQSPESLLQLKALKPGVIQILGVKTSRFLCQRPDGALYGSLHFDPEACSFRELLLEDGYNVYQSEAHGLPLHLPGQKSPHRDPAPRGPARFLPLPGLPPALPEPPGILAPQPPDVGSSDPLSLVCPACQGRSPSYAS
modifications: disulfide bond introduced between 170C and 173C
notes: A small number of incorrect dimers is reported
B3: in test [1], the “Activity in β-Klotho-ERK cells (EC50)” value came to 2.52 nM. For the same molecule, the Kd in test [2] was found to be 69.9 nM.

B4: FGF21 (170C/Ins-172S/173C) mutant 1413 (ligand)
chain: HPIPDSSPLLQFGGQVRQRYLYTDDAQQTEAHLEIREDGTVGGAADQSPESLLQLKALKPGVIQILGVKTSRFLCQRPDGALYGSLHFDPEACSFRELLLEDGYNVYQSEAHGLPLHLPGQKSPHRDPAPRGPARFLPLPGLPPALPEPPGILAPQPPDVGSSDPLSLVCPSCQGRSPSYAS
modifications: disulfide bond introduced between 170C and 173C
notes: as for B3
Consider B4, for which, in test [1], the “Activity in β-Klotho-ERK cells (EC50)” value came out at 2.09 nM. The molecule further displayed a Kd in test [2] of 64.6 nM.

B5: FGF21 (121Q, 168L) mutant 1414 (ligand)
chain: HPIPDSSPLLQFGGQVRQRYLYTDDAQQTEAHLEIREDGTVGGAADQSPESLLQLKALKPGVIQILGVKTSRFLCQRPDGALYGSLHFDPEACSFRELLLEDGYNVYQSEAHGLPLHLPGQKSPHRDPAPRGPARFLPLPGLPPALPEPPGILAPQPPDVGSSDPLSLVGPSQGRSPSYAS
notes: Control that stands for wild-type FGF21; An alanine is added before His1 of mature FGF21; also called FGF21 control mutant 1414
As for B5, the “Activity in β-Klotho-ERK cells (EC50)” value in test [1] was 0.85 nM. In test [2], this molecule had a Kd of 51.2 nM.

B6: FGF21 (170C/173C) mutant 1411 (ligand)
chain: HPIPDSSPLLQFGGQVRQRYLYTDDAQQTEAHLEIREDGTVGGAADQSPESLLQLKALKPGVIQILGVKTSRFLCQRPDGALYGSLHFDPEACSFRELLLEDGYNVYQSEAHGLPLHLPGQKSPHRDPAPRGPARFLPLPGLPPALPEPPGILAPQPPDVGSSDPLSLVCPSCGRSPSYAS
modifications: disulfide bond introduced between 170C and 173C
notes: Only a trace amount of incorrect dimers is reported
In the case of B6, the “Activity in β-Klotho-ERK cells (EC50)” value in test [1] was determined as 0.999 nM. The same molecule displayed a Kd in test [2] of 69.4 nM.

B7: FGF21 (P171G) mutant 1407 (ligand)
chain: HPIPDSSPLLQFGGQVRQRYLYTDDAQQTEAHLEIREDGTVGGAADQSPESLLQLKALKPGVIQILGVKTSRFLCQRPDGALYGSLHFDPEACSFRELLLEDGYNVYQSEAHGLPLHLPGQKSPHRDPAPRGPARFLPLPGLPPALPEPPGILAPQPPDVGSSDPLSLVGGSQGRSPSYAS
notes: also called FGF21 mutant P171G
On to B7, for which the “Activity in β-Klotho-ERK cells (EC50)” value in test [1] was determined as 1.15 nM. This molecule came in with a Kd in test [2] of 42.5 nM.
